US12186374B2 (Sanofi-Aventis Deutschland GmbH, priority 2014, dated 2025)

Test system: patients with Type 2 diabetes mellitus (T2DM)
Assay: Treatment-emergent adverse events incl. serious, fatal, leading to discontinuation (Example 2)
Details: Safety population
[1] = SOC, PT ≥ 3% in any treatment group

Gly(A21)-Arg(B31)-Arg(B32)-human insulin [Insulin Glargine]
59 (12.6%) n (%): TEAE: Gastrointestinal disorders [1]
126 (27.0%) n (%): TEAE: Infections and infestations [1]
41 (8.8%) n (%): TEAE: Musculoskeletal and connective tissue disorders [1]
19 (4.1%) n (%): Patients with any serious TEAE
9 (1.9%) n (%): Patients with any TEAE leading to permanent treatment discontinuation
4 (0.9%) n (%): Serious TEAE: Neoplasms benign, malignant and unspecified (incl cysts and polyps) (SOC)
3 (0.6%) n (%): Serious TEAE: Respiratory, thoracic and mediastinal disorders (SOC) | TEAE leading to permanent treatment discontinuation: Cardiac disorders (SOC) | Patients with any TEAE leading to death
30 (6.4%) n (%): TEAE: Nervous system disorders [1]
6 (1.3%) n (%): Serious TEAE: Cardiac disorders (SOC)
1 (0.2%) n (%): TEAE leading to death: Squamous cell carcinoma of the oral cavity (PT) | TEAE leading to permanent treatment discontinuation: Acute myocardial infarction (PT) | TEAE leading to permanent treatment discontinuation: Acute pulmonary oedema (PT) | TEAE leading to permanent treatment discontinuation: Bronchitis (PT) | TEAE leading to permanent treatment discontinuation: Cardiac failure acute (PT) | TEAE leading to permanent treatment discontinuation: Comminuted fracture (PT) | TEAE leading to permanent treatment discontinuation: Cough (PT) | TEAE leading to permanent treatment discontinuation: Depression (PT) | TEAE leading to permanent treatment discontinuation: Drug hypersensitivity (PT) | TEAE leading to permanent treatment discontinuation: Dyspepsia (PT) | TEAE leading to permanent treatment discontinuation: Fatigue (PT) | TEAE leading to permanent treatment discontinuation: Headache (PT) | TEAE leading to permanent treatment discontinuation: Lipase increased (PT) | TEAE leading to permanent treatment discontinuation: Myocardial infarction (PT) | TEAE leading to permanent treatment discontinuation: Pancreatic carcinoma (PT) | TEAE leading to permanent treatment discontinuation: Rash (PT) | Serious TEAE: Blood and lymphatic system disorders (SOC) | Serious TEAE: General disorders and administration site conditions (SOC) | Serious TEAE: Injury, poisoning and procedural complications (SOC) | Serious TEAE: Investigations (SOC) | Serious TEAE: Musculoskeletal and connective tissue disorders (SOC) | Serious TEAE: Nervous system disorders (SOC) | Serious TEAE: Vascular disorders (SOC) | TEAE leading to death: Neoplasms benign, malignant and unspecified (incl cysts and polyps) (SOC) | TEAE leading to death: Respiratory, thoracic and mediastinal disorders (SOC) | TEAE leading to permanent treatment discontinuation: Gastrointestinal disorders (SOC) | TEAE leading to permanent treatment discontinuation: General disorders and administration site conditions (SOC) | TEAE leading to permanent treatment discontinuation: Immune system disorders (SOC) | TEAE leading to permanent treatment discontinuation: Infections and infestations (SOC) | TEAE leading to permanent treatment discontinuation: Injury, poisoning and procedural complications (SOC) | TEAE leading to permanent treatment discontinuation: Investigations (SOC) | TEAE leading to permanent treatment discontinuation: Neoplasms benign, malignant and unspecified (incl cysts and polyps) (SOC) | TEAE leading to permanent treatment discontinuation: Nervous system disorders (SOC) | TEAE leading to permanent treatment discontinuation: Psychiatric disorders (SOC) | TEAE leading to permanent treatment discontinuation: Skin and subcutaneous tissue disorders (SOC)
2 (0.4%) n (%): Serious TEAE: Infections and infestations (SOC) | Serious TEAE: Renal and urinary disorders (SOC) | TEAE leading to death: Cardiac disorders (SOC) | TEAE leading to permanent treatment discontinuation: Respiratory, thoracic and mediastinal disorders (SOC)
0 n (%): TEAE leading to death: Lung cancer metastatic (PT) | TEAE leading to permanent treatment discontinuation: Abdominal distension (PT) | TEAE leading to permanent treatment discontinuation: Abdominal pain (PT) | TEAE leading to permanent treatment discontinuation: Alanine aminotransferase increased (PT) | TEAE leading to permanent treatment discontinuation: Anaphylactic reaction (PT) | TEAE leading to permanent treatment discontinuation: Atrial fibrillation (PT) | TEAE leading to permanent treatment discontinuation: Back pain (PT) | TEAE leading to permanent treatment discontinuation: Bacteraemia (PT) | TEAE leading to permanent treatment discontinuation: Blood creatinine increased (PT) | TEAE leading to permanent treatment discontinuation: Cardiac failure congestive (PT) | TEAE leading to permanent treatment discontinuation: Colitis (PT) | TEAE leading to permanent treatment discontinuation: Death (PT) | TEAE leading to permanent treatment discontinuation: Decreased appetite (PT) | TEAE leading to permanent treatment discontinuation: Diabetic mononeuropathy (PT) | TEAE leading to permanent treatment discontinuation: Diarrhoea (PT) | TEAE leading to permanent treatment discontinuation: Extradural abscess (PT) | TEAE leading to permanent treatment discontinuation: Gastritis erosive (PT) | TEAE leading to permanent treatment discontinuation: Injection site erythema (PT) | TEAE leading to permanent treatment discontinuation: Insomnia (PT) | TEAE leading to permanent treatment discontinuation: Lung cancer metastatic (PT) | TEAE leading to permanent treatment discontinuation: Lung neoplasm malignant (PT) | TEAE leading to permanent treatment discontinuation: Meningitis staphylococcal (PT) | TEAE leading to permanent treatment discontinuation: Nausea (PT) | TEAE leading to permanent treatment discontinuation: Skin burning sensation (PT) | TEAE leading to permanent treatment discontinuation: Urinary tract infection (PT) | TEAE leading to permanent treatment discontinuation: Urticaria (PT) | TEAE leading to permanent treatment discontinuation: Vomiting (PT) | Serious TEAE: Gastrointestinal disorders (SOC) | Serious TEAE: Hepatobiliary disorders (SOC) | Serious TEAE: Immune system disorders (SOC) | Serious TEAE: Metabolism and nutrition disorders (SOC) | Serious TEAE: Reproductive system and breast disorders (SOC) | Serious TEAE: Skin and subcutaneous tissue disorders (SOC) | TEAE leading to death: General disorders and administration site conditions (SOC) | TEAE leading to permanent treatment discontinuation: Metabolism and nutrition disorders (SOC) | TEAE leading to permanent treatment discontinuation: Musculoskeletal and connective tissue disorders (SOC)
227 (48.6%) n (%): Patients with any TEAE
